Test results as given in US20260001953A1 (TWIST BIOSCIENCE, published 2026).
Numbering of substitutions follows the chain as printed.

T1: mouse CD117 (mouse, UniProt P05532)
T1 construct: antigen of the Carterra SPR kinetics; also called murine CD117
T1 sequence (receptor, looked up): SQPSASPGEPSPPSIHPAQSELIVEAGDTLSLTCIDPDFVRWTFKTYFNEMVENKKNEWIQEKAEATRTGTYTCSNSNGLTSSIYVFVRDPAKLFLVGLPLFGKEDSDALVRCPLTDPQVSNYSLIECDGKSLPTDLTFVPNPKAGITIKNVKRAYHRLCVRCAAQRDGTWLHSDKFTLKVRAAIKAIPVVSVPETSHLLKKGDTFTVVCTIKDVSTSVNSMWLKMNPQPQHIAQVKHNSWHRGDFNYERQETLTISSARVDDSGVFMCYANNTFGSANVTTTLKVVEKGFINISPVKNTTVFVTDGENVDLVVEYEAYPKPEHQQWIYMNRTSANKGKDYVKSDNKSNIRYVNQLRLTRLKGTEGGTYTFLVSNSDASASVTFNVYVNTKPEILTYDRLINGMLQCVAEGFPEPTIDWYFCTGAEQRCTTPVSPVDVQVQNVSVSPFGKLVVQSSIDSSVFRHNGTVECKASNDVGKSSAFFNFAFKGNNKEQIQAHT

B1: CD117-8 (antibody, human IgG1, kappa, V domains shown)
VH: EVQLLESGGGLVQPGGSLRLSCAASGFTLTSYAMSWVRQAPGKGLEWVSTISGSGGYTYYADSVKGRFTISRDNSKNTLYLQMNSLRAEDTAVYYCARDSGYDRGLDYWGQGTLVTVSS
VL: DIQMTQSPSSLSASVGDRVTITCRASQSVRTYLNWYQQKPGKAPKLLIYDASTLQSGVPSRFSGSGSGTDFTLTISSLQPEDFATYYCQQSYNTPLAFGGGTKVEIKR
notes: detected with anti-human IgG in FACS
B2: CD117-13 (antibody, human IgG1, kappa, V domains shown)
VH: B1 VH
VL: B1 VL with S28N, V29I, R30Y, T53S, Q55H, Y92S, N93S, L96Y, A97T
notes: as for B1
B3: CD117-4 (antibody, human IgG1, kappa, V domains shown)
VH: EVQLLESGGGLVQPGGSLRLSCAASGFTFSRSAMSWVRQAPGKGLEWVSAISAGGGNTYYADSVKGRFTISRDNSKNTLYLQMNSLRAEDTAVYYCAREQDLWSGTFDYWGQGTLVTVSS
VL: B1 VL with S26R, V29I, R30S, T31S, T53S, Q55R, N93K, L96W, A97T
notes: as for B1
B4: CD117-15 (antibody, human IgG1, kappa, V domains shown)
VH: EVQLLESGGGLVQPGGSLRLSCAASGFTFSDYPMSWVRQAPGKGLEWVSAIGGSGGDTYYADSVKGRFTISRDNSKNTLYLQMNSLRAEDTAVYYCARGAYDGEGFDYWGQGTLVTVSS
VL: B1 VL with A25T, V29I, R30G, T31S, D50S, T53R, Q55E, S91T, L96W, A97T
notes: as for B1
B5: CD117-3 (antibody, human IgG1, kappa, V domains shown)
VH: EVQLLESGGGLVQPGGSLRLSCAASGFSFSSYAMSWVRQAPGKGLEWVSAISGTGGNTYYADSVKGRFTISRDNSKNTLYLQMNSLRAEDTAVYYCARRNDFWSDAFDIWGQGTLVTVSS
VL: B1 VL with S28N, V29I, R30Y, T53S, Q55H, Y92S, N93S, L96Y, A97T
notes: as for B1
B6: SIGLEC-8-4 (antibody, human IgG1, kappa, V domains shown)
VH: EVQLLESGGGLVQPGGSLRLSCAASGFSFSSDAMSWVRQAPGKGLEWVSGISGGGGSAYYADSVKGRFTISRDNSKNTLYLQMNSLRAEDTAVYYCAREGASNYAAFDIWGQGTLVTVSS
VL: DIQMTQSPSSLSASVEDRVTITCRAGQSITPYLNWYQQKPGKAPKLLIYATSSLHSGVPSRFSGSGSGTDFTLTISSLQPEDFATYYCQQSHSSPLTFGGGTKVEIKR
notes: tested as expressed and purified mAb
B7: SIGLEC-8-20 (antibody, human IgG1, kappa, V domains shown)
VH: EVQLLESGGGLVQPGGSLRLSCAASGFTFSSFDMTWVRQAPGKGLEWVSSISGGGGSTYYADSVKGRFTISRDNSKNTLYLQMNSLRAEDTAVYYCAREDGSGSYSMDVWGQGTLVTVSS
VL: DIQMTQSPSSLSASVGDRVTITCRASQSIDNYLHWYQQKPGKAPKLLIYAASNLEGGVPSRFSGSGSGTDFTLTISSLQPEDFATYYCQQSYKTPVTFGGGTKVEIKR
notes: as for B6
B8: SIGLEC-8-30 (antibody, human IgG1, kappa, V domains shown)
VH: EVQLLESGGGLVQPGGSLRLSCAASGFTFSHYALSWVRQAPGKGLEWVSIISGSGDTTYYADSVKGRFTISRDNSKNTLYLQMNSLRAEDTAVYYCAKATYFYDSSGYRRATYFDYWGQGTLVTVSS
VL: DIQMTQSPSSLSASVGDRVTITCRASQGISRHLNWYQQKPGKAPKLLIYAESTLQSGVPSRFSGSGSGTDFTLTISSLQPEDFATYYCQQTYTLPYTFGGGTKVEIKR
notes: as for B6
B9: SIGLEC-8-31 (antibody, human IgG1, kappa, V domains shown)
VH: EVQLLESGGGLVQPGGSLRLSCAASGFTFSTDAMSWVRQAPGKGLEWVSTVSGSGASTYYADSVKGRFTISRDNSKNTLYLQMNSLRAEDTAVYYCAREDSGKYLSLDYWGQGTLVTVSS
VL: B7 VL with D30T, H34N, A51S, N53T, G56S, K93I, V96L
notes: as for B6
B10: SIGLEC-8-45 (antibody, human IgG1, kappa, V domains shown)
VH: B6 VH with S28T, D32G, G50T, G54S, G56A, A58T, A101S, N103S, Y104W, A105N
VL: B7 VL with S28T, D30A, H34N, G56D, K93N, V96I
notes: as for B6
B11: SIGLEC-8-52 (antibody, human IgG1, kappa, V domains shown)
VH: B9 VH with S30R, T31S, D32Y, A33V, T50S, V51I, G53L, A56G, D100E, Y109H
VL: B7 VL with I29V, D30S, Y32F, H34N, S91T, K93S, V96I
notes: as for B6
B12: SIGLEC-8-53 (antibody, human IgG1, kappa, V domains shown)
VH: B9 VH with T31S, D32S, S35A, T50E, V51I, G53D, A56G, D100E, Y109H
VL: B7 VL with S28T, D30I, H34N, A50G, L54V, E55Q, G56S, K93V, V96P
notes: as for B6
B13: SIGLEC-8-60 (antibody, human IgG1, kappa, V domains shown)
VH: B9 VH with F29L, T31N, D32Y, S35T, D100N
VL: B8 VL with G28N, S30A, R31S, H32Y, E51T, T53D, T93N, L94I, Y96L
notes: as for B6
B14: SIGLEC-8-61 (antibody, human IgG1, kappa, V domains shown)
VH: EVQLLESGGGLVQPGGSLRLSCAASGFTFSSSAMTWVRQAPGKGLEWVTAISESGGSTYYADSVKGRFTISRDNSKNTLYLQMNSLRAEDTAVYYCAREGGDYYYGIDVWGQGTLVTVSS
VL: B1 VL with S26G, V29I, R30N, T31R, D50G, T53N, Y92F, N93T, A97T
notes: tested as expressed and purified mAb; also called SIGLEC-61
B15: SIGLEC-8-55 (antibody, human IgG1, kappa, V domains shown)
VH: EVQLLESGGGLVQPGGSLRLSCAASGFTFDDYAMSWVRQAPGKGLEWVSYISGSGGSTYYADSVKGRFTISRDNSKNTLYLQMNSLRAEDTAVYYCAKYRRYDSGLGGFDYWGQGTLVTVSS
VL: B1 VL with Q27R, V29I, R30D, S56G, N93V, L96P, A97T
notes: tested as expressed and purified mAb; also called SIGLEC-55
B16: SIGLEC-8-59 (antibody, human IgG1, kappa, V domains shown)
VH: EVQLLESGGGLVQPGGSLRLSCAASGFTFTSYAVSWVRQAPGKGLEWVSSISGSGGSAYYADSVKGRFTISRDNSKNTLYLQMNSLRAEDTAVYYCARDTVGYGMDVWGQGTLVTVSS
VL: DIQMTQSPSSLSASVGDRVTITCRASQTISGYLSWYQQKPGKAPKLLIYSASRLHSGVPSRFSGSGSGTDFTLTISSLQPEDFATYYCQQGYSTPLTFGGGTKVEIKR
notes: as for B6

molecular target: T2, CD117 transiently expressed on Expi293 cells (UniProt P10721 26-976, limits assumed); test: FACS, MFI expressing / parental cells
T2 construct: whole, on cells; Two cassettes are described (P2A mVenus and direct mVenus fusion); also called CD117 transient cells; the transient cell line
Procedure: (§1) The transient expression of CD117 was validated with a control antibody, Expi293 (FIGS. 17A-17B). Expi293, […], was transiently transfected with CD117 48-hours post-transfection. The secondary antibody used was APC Goat anti-human IgG (diluted 1:400). 100,000 cells per well were blocked with 1×PBS+0.5% BSA for 1 hour, stained with 100 μL of the primary antibody for 1 hour, and stained with the secondary antibody for one hour, all with 3× washes in between each staining.

T2 sequence (P10721 26-976 limits assumed): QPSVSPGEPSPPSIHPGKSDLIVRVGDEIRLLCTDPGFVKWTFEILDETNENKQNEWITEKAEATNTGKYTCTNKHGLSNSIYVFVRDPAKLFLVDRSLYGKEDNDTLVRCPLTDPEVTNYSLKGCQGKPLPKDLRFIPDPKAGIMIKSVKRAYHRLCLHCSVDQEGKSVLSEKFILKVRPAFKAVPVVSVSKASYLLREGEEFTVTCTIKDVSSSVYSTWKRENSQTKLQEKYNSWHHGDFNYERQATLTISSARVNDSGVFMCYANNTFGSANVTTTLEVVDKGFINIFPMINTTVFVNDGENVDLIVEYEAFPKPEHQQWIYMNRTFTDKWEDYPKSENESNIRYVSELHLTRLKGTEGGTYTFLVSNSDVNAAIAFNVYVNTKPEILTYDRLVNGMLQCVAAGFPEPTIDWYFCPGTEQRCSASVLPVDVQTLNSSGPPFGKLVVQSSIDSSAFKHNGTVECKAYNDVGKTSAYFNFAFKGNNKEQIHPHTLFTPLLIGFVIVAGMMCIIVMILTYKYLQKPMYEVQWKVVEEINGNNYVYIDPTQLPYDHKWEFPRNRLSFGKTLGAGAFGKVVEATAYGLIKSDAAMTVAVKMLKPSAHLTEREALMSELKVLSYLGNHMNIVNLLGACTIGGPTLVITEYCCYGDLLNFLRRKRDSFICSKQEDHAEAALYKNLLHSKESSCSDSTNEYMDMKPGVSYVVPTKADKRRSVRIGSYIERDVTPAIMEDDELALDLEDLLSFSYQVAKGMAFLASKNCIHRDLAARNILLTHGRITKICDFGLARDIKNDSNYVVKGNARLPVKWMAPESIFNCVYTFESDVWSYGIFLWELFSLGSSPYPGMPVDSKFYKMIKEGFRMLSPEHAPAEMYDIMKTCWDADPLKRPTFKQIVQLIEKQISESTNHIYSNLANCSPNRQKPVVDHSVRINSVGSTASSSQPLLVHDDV

| Binder | MFI Ratio |
| --- | --- |
| B1 | 4.25 |
| B2 | 18.6 |
| B3 | 10.5 |

molecular target: T1, mouse CD117; test: Carterra SPR, mouse CD117
Procedure: (§2) To further evaluate the antibodies discovered during the screens, 21 clones were selected for detailed characterization and were analyzed for target binding kinetics by a Carterra SPR instrument. The binding kinetics of the anti-CD117 antibodies for human CD117, cynomolgus monkey CD117, and murine CD117 are shown in FIG. 29A-29B.

| Binder | binding result |
| --- | --- |
| B2 | no binding |
| B4 | no binding |
| B5 | no binding |

molecular target: T3, Sialic acid-binding immunoglobulin-like lectin 8 (SIGLEC-8), antigen of the Carterra SPR studies (UniProt Q9NYZ4 17-363, limits assumed); test: Carterra SPR kinetics, summary table
Outline: (§3)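 Binding of antibodies to SIGLEC-8 was followed by surface plasmon resonance on a Carterra instrument to obtain rate constants and dissociation constants. Before these kinetic runs, clones from synthetic antibody libraries were selected by four rounds of bead-based panning and clonal ELISA, then expressed and purified.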

T3 sequence (Q9NYZ4 17-363 limits assumed): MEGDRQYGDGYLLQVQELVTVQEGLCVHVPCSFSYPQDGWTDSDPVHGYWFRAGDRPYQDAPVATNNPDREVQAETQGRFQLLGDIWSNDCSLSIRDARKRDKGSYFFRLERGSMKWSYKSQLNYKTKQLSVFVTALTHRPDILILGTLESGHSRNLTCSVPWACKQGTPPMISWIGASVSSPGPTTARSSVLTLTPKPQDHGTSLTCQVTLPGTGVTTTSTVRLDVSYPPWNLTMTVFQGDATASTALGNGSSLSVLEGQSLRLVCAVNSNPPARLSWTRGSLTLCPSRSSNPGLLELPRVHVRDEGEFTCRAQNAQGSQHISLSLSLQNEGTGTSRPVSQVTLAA

| Binder | koff | kon |
| --- | --- | --- |
| B6 | 3.12e-05 s⁻¹ | 165000 M⁻¹ s⁻¹ |
| B7 | 3.4e-05 s⁻¹ | 445000 M⁻¹ s⁻¹ |
| B8 | 0.000124 s⁻¹ | 145000 M⁻¹ s⁻¹ |
| B9 | 5.63e-05 s⁻¹ | 152000 M⁻¹ s⁻¹ |
| B10 | 8.37e-05 s⁻¹ | 146000 M⁻¹ s⁻¹ |
| B11 | 6.22e-05 s⁻¹ | 84900 M⁻¹ s⁻¹ |
| B12 | 4.78e-05 s⁻¹ | 259000 M⁻¹ s⁻¹ |
| B13 | 0.000116 s⁻¹ | 129000 M⁻¹ s⁻¹ |
| B14 | 3.67e-05 s⁻¹ | 390000 M⁻¹ s⁻¹ |

molecular target: T4, SIGLEC-8 transiently expressed on cells (UniProt Q9NYZ4 17-499, limits assumed); test: cell binding titration, transient SIGLEC-8 line
T4 construct: whole, on cells; Two cassettes are described (P2A mVenus and direct mVenus fusion); also called the transient line; pTT5-SIGLEC-8 P2A mVenus
T4 sequence (Q9NYZ4 17-499 limits assumed): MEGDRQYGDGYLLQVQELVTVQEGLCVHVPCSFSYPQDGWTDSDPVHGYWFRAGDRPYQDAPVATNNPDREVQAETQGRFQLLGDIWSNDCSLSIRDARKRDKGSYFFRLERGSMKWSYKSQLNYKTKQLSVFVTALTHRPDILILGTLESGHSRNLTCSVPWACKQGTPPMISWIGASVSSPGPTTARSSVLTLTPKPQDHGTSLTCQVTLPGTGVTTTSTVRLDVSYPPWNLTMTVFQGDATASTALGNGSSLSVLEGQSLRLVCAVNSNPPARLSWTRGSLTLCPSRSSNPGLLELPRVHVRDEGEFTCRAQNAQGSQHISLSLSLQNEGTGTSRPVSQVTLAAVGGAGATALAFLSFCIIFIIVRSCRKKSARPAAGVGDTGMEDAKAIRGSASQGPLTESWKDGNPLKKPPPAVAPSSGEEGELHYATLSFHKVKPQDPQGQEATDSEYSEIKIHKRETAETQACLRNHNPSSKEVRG

| Binder | EC50 |
| --- | --- |
| B6 | 2.38 nM |
| B7 | 0.972 nM |
| B8 | 1.5 nM |
| B9 | 1.33 nM |
| B10 | 1.81 nM |
| B11 | 4.07 nM |
| B12 | 0.69 nM |
| B13 | 0.653 nM |
| B14 | 0.494 nM |
| B15 | 3.01 nM |
| B16 | 0.939 nM |

molecular target: T5, cyno CD117 (Macaca fascicularis, UniProt A0A7N9CP24); test: Carterra SPR, cyno CD117
T5 construct: antigen of the Carterra SPR kinetics; also called cynomolgus monkey CD117
Procedure: as §2

T5 sequence (A0A7N9CP24 entry or part of it): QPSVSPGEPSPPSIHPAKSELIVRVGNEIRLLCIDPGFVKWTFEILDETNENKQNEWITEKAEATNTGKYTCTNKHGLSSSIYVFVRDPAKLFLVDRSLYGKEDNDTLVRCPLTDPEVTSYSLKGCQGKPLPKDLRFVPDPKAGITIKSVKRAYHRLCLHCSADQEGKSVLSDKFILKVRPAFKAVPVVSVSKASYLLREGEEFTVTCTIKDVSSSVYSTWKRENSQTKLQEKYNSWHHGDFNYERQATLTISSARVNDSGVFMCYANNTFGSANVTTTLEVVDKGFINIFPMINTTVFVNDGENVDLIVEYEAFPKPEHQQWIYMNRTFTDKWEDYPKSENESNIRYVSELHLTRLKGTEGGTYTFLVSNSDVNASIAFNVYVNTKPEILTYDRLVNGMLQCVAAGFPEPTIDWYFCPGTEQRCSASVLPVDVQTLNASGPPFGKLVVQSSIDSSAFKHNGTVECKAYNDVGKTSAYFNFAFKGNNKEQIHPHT

| Binder | Kd | koff | kon |
| --- | --- | --- | --- |
| B2 | 480 nM | 0.156 s⁻¹ | 324000 M⁻¹ s⁻¹ |

molecular target: T6, Cluster of differentiation 117 (CD117), antigen of epitope binning and ELISA (UniProt P10721 26-520, limits assumed); test: Carterra SPR, human CD117
T6 construct: also called tyrosine-protein kinase KIT; mast/stem cell growth factor receptor (SCFR)
Procedure: as §2

T6 sequence (P10721 26-520 limits assumed): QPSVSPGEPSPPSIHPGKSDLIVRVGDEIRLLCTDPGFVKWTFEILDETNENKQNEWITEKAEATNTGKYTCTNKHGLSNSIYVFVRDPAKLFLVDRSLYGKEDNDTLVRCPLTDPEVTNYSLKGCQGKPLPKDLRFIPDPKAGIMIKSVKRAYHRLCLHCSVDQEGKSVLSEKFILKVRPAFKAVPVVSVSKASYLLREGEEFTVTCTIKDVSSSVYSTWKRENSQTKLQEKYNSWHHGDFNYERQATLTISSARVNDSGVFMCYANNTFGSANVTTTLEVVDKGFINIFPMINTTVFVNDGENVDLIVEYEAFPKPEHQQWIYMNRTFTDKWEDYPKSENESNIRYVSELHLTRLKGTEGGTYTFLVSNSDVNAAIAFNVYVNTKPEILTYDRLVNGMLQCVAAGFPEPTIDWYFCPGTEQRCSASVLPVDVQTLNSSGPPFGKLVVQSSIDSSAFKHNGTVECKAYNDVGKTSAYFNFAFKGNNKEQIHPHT

| Binder | binding result | Kd | koff | kon |
| --- | --- | --- | --- | --- |
| B1 | no binding |  |  |  |
| B2 |  | 5.17 nM | 0.00877 s⁻¹ | 1.7e+06 M⁻¹ s⁻¹ |
| B3 | no binding |  |  |  |

molecular target: T3, Sialic acid-binding immunoglobulin-like …; test: Carterra SPR
Outline: as §3

| Binder | Kd |
| --- | --- |
| B6 | 0.189 nM |
| B7 | 0.0764 nM |
| B8 | 0.856 nM |
| B9 | 0.37 nM |
| B10 | 0.574 nM |
| B11 | 0.733 nM |
| B12 | 0.185 nM |
| B13 | 0.895 nM |
| B14 | 0.0942 nM |
| B15 | 1.61 nM |
| B16 | 31.2 nM |

molecular target: T2, CD117 transiently expressed on Expi293 …; test: FACS cell binding, Expi293 transiently expressing CD117
Procedure: as §1

| Binder | EC50 |
| --- | --- |
| B1 | 351 nM |
| B2 | 11 nM |
| B3 | 3.42 nM |
